Measured values from patent US20140087995A1 (published 2014).
Numbered stars: 1 amine (or outer) side, 2 acyl side, 3 side chain; on linkers, the order of the positions; unused ones are H or OH. Bridge positions count the residues as written; N and C are the ends. Side chains are listed from the residue outwards. Ends that are not written are not given here. * marks the point of attachment. C20 diacid = O=C(O)CCCCCCCCCCCCCCCCCCC(=O)*; γGlu = O=C(O)[C@H](CCC(=O)[*:2])N[*:1]

T1: human calcitonin receptor (human, UniProt P30988 25-474)
T1 construct: whole, on cells; Membranes of stably transfected cells; also called hCTR; hCT
T1 sequence (looked up): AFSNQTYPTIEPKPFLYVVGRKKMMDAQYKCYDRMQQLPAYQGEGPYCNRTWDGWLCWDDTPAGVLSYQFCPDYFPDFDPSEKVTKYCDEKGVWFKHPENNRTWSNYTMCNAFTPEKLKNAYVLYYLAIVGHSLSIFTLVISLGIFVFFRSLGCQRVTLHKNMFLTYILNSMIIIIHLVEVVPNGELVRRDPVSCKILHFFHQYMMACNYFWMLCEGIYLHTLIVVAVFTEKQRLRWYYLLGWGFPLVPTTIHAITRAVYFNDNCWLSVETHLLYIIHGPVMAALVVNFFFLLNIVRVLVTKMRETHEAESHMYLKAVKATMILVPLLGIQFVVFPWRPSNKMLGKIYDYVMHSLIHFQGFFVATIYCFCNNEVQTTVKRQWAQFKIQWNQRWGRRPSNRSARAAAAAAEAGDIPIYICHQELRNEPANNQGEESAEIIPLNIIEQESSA

T2: rat calcitonin receptor (rat, UniProt P32214 25-516)
T2 construct: whole, on cells; Membranes of transiently transfected BHK tk'ts 13 cells; also called rCTR; rat calcitonin (a) receptor
T2 sequence (looked up): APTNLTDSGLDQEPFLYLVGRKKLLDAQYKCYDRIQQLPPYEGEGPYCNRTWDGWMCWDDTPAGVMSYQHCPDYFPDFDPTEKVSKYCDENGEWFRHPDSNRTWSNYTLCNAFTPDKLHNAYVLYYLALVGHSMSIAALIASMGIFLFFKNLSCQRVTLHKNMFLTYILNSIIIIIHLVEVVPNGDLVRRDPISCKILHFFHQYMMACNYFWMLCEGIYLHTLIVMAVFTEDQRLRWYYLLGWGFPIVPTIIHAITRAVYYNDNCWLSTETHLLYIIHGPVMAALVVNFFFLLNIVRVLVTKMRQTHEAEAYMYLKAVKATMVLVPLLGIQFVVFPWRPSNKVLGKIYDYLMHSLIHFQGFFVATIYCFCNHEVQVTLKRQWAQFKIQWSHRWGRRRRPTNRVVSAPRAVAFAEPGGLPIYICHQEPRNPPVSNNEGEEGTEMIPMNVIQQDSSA

T3: rat amylin receptor (rat calcitonin receptor + rat RAMP 3) (rat, UniProt P32214 25-516; Q9JJ73 23-147)
T3 construct: whole, on cells; Membranes of transiently transfected BHK tk'ts 13 cells; also called rAmylin-R; rat amylin 3(a) receptor
T3 sequence (looked up) 1: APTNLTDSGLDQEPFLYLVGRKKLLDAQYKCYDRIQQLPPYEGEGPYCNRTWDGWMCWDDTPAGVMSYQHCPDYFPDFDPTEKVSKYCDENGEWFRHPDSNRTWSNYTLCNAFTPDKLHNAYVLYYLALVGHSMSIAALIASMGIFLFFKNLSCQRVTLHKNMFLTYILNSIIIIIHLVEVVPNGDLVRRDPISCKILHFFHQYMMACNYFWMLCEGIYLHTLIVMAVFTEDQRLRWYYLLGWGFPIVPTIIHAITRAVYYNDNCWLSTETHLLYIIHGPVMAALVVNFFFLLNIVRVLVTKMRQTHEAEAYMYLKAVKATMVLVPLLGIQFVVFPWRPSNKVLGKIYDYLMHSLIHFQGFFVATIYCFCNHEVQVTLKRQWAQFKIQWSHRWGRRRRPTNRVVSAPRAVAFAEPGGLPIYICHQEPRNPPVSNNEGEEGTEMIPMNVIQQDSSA
T3 sequence (looked up) 2: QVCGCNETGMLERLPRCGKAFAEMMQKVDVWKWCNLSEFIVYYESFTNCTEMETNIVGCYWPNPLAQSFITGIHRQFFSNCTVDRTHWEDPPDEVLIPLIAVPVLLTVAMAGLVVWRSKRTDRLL


Tests used:
[1] = molecular target: T1, human calcitonin receptor; assay: ratio of IC50 on human calcitonin receptor to IC50 on human amylin receptor (reference m42), SPA competition
Summary of the method: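 Competition binding by SPA with cell membranes (35 ng/μL) and SPA beads in 50 mM Hepes pH 7.4 with 1 mM CaCl2, 5 mM MgCl2, 0.1% OA and 0.02% Tween20. Incubated 120 min at 25 °C with shaking, then counted.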

[2] = molecular target: T2, rat calcitonin receptor; assay: SPA competition with 125I-calcitonin on membranes of BHK tk'ts 13 cells with rat calcitonin receptor (Assay VIII)
[3] = molecular target: T2, rat calcitonin receptor; assay: ratio of IC50 on rat calcitonin receptor to IC50 on rat amylin receptor (reference m40)
[4] = molecular target: T3, rat amylin receptor (rat calcitonin …); assay: SPA competition with 125I-rat amylin on membranes of BHK tk'ts 13 cells with rat calcitonin receptor + rat RAMP3 (Assay VI)

Ratio hCT/hAmylin binding [1]	IC50 [2]	Ratio rCT/rAmylin binding [3]	IC50 [4]	Binder
13.3	10.4 nM	63.2	0.164 nM	K([γGlu-C20 diacid])CNTATCATQRLAEFLRHSSPNFGAIPSSTNVGPETY-NH2 (disulfide 2-7; N-terminus assumed; SMILES CC[C@H](C)[C@H](NC(=O)[C@H](C)NC(=O)CNC(=O)[C@H](Cc1ccccc1)NC(=O)[C@H](CC(N)=O)NC(=O)[C@@H]1CCCN1C(=O)[C@H](CO)NC(=O)[C@H](CO)NC(=O)[C@H](Cc1c[nH]cn1)NC(=O)[C@H](CCCNC(=N)N)NC(=O)[C@H](CC(C)C)NC(=O)[C@H](Cc1ccccc1)NC(=O)[C@H](CCC(=O)O)NC(=O)[C@H](C)NC(=O)[C@H](CC(C)C)NC(=O)[C@H](CCCNC(=N)N)NC(=O)[C@H](CCC(N)=O)NC(=O)[C@@H](NC(=O)[C@H](C)NC(=O)[C@@H]1CSSC[C@H](NC(=O)[C@@H](N)CCCCNC(=O)CC[C@H](NC(=O)CCCCCCCCCCCCCCCCCCC(=O)O)C(=O)O)C(=O)N[C@@H](CC(N)=O)C(=O)N[C@@H]([C@@H](C)O)C(=O)N[C@@H](C)C(=O)N[C@@H]([C@@H](C)O)C(=O)N1)[C@@H](C)O)C(=O)N1CCC[C@H]1C(=O)N[C@@H](CO)C(=O)N[C@@H](CO)C(=O)N[C@H](C(=O)N[C@@H](CC(N)=O)C(=O)N[C@H](C(=O)NCC(=O)N1CCC[C@H]1C(=O)N[C@@H](CCC(=O)O)C(=O)N[C@H](C(=O)N[C@@H](Cc1ccc(O)cc1)C(N)=O)[C@@H](C)O)C(C)C)[C@@H](C)O, Synthetic acylated analogue of human amylin)
36.2	65.9 nM	97.7	0.674 nM	{C20 diacid-γGlu}-GRCNTATCATQRLAHFLRHSSPNFGAIPSSTNVGPNTY-NH2 (disulfide 3-8; SMILES CC[C@H](C)[C@H](NC(=O)[C@H](C)NC(=O)CNC(=O)[C@H](Cc1ccccc1)NC(=O)[C@H](CC(N)=O)NC(=O)[C@@H]1CCCN1C(=O)[C@H](CO)NC(=O)[C@H](CO)NC(=O)[C@H](Cc1c[nH]cn1)NC(=O)[C@H](CCCNC(=N)N)NC(=O)[C@H](CC(C)C)NC(=O)[C@H](Cc1ccccc1)NC(=O)[C@H](Cc1c[nH]cn1)NC(=O)[C@H](C)NC(=O)[C@H](CC(C)C)NC(=O)[C@H](CCCNC(=N)N)NC(=O)[C@H](CCC(N)=O)NC(=O)[C@@H](NC(=O)[C@H](C)NC(=O)[C@@H]1CSSC[C@H](NC(=O)[C@H](CCCNC(=N)N)NC(=O)CNC(=O)CC[C@H](NC(=O)CCCCCCCCCCCCCCCCCCC(=O)O)C(=O)O)C(=O)N[C@@H](CC(N)=O)C(=O)N[C@@H]([C@@H](C)O)C(=O)N[C@@H](C)C(=O)N[C@@H]([C@@H](C)O)C(=O)N1)[C@@H](C)O)C(=O)N1CCC[C@H]1C(=O)N[C@@H](CO)C(=O)N[C@@H](CO)C(=O)N[C@H](C(=O)N[C@@H](CC(N)=O)C(=O)N[C@H](C(=O)NCC(=O)N1CCC[C@H]1C(=O)N[C@@H](CC(N)=O)C(=O)N[C@H](C(=O)N[C@@H](Cc1ccc(O)cc1)C(N)=O)[C@@H](C)O)C(C)C)[C@@H](C)O, Synthetic acylated analogue of human amylin, extended by Gly at position -1)
